Laboratory results as given in patent publication US20250129136A1.
Blank lines part the entries; values can stand above or below the molecule they belong to.

How the values were obtained:
hPBMC = assay: flow cytometry, percent of stained hPBMC against the concentration of Alexa647-labeled hDsg3-hFc
[1] = molecular target: AK23 antibody (anti-mouse Dsg3, from AK23 hybridoma); assay: cell-based or functional assay
[2] = molecular target: F779 patient-derived anti-Dsg3 antibody on Nalm-6 cells; assay: cell-based or functional assay
[3] = molecular target: PVB28 patient-derived anti-Dsg3 antibody on Nalm-6 cells; assay: cell-based or functional assay
[4] = molecular target: F779 patient-derived anti-Dsg3 antibody on Nalm-6 cells; assay: flow cytometry on F779 cells, titration of Alexa647-labeled protein
[5] = molecular target: Fcγ receptor of mouse macrophages (RAW264.7 cells) (mouse); assay: flow cytometry on Raw macrophage cells, titration of labeled protein
[6] = molecular target: Fcγ receptor of mouse macrophages (RAW264.7 cells) (mouse); assay: flow cytometry dot plot of RAW264.7 macrophage cells, 10 nM mDsg3-IgG2a-Alexa647; the same quadrant at 0 nM prints 1.28
[7] = molecular target: F779 patient-derived anti-Dsg3 antibody on Nalm-6 cells; assay: flow cytometry, F779 cells incubated with varying concentrations of mDsg3-mFc (IgG2a), percent of stained F779 cells [top]

EC50 (hPBMC): 1.7 nM
Molecule: hDsg3(EC13)-hFc (Fc fusion)

EC50 [4]: 2.3 nM | EC50 [5]: 2.3 nM | number in the Alexa647-positive upper right quadrant at 10 nM (percent of cells) [6]: 98.6% | EC50 [7]: 2.6 nM
B1: mDsg3(EC13)-mFc (Fc fusion)
chain: EWVKFAKPCREREDNSRRNPIAKITSDFQKNQKITYRISGVGIDQPPFGIFVVDPNNGDINITAIVDREETPSFLITCRALNALGQDVERPLILTVKILDVNDNPPIFSQTIFKGEIEENSASNSLVMILNATDADEPNHMNSKIAFKIVSQEPAGMSMFLISRNTGEVRTLTSSLDREQISSYHLVVSGADNDGTGLSTQCECSIKIKDVNDNFPVLRESQYSARIEENTLNAELLRFQVTDWDEEYTDNWLAVYFFTSGNEGNWFEIETDPRTNEGILKVVKALDYEQVQSMQFSIAVRNKAEFHQSVISQYRVQSTPVTIQVIDVREGISGGGGSGGSEPRGPTIKPCPPCKCPAPNLLGGPSVFIFPPKIKDVLMISLSPIVTCVVVDVSEDDPDVQISWFVNNVEVHTAQTQTHREDYNSTLRVVSALPIQHQDWMSGKEFKCKVNNKDLPAPIERTISKPKGSVRAPQVYVLPPPEEEMTKKQVTLTCMVTDFMPEDIYVEWTNNGKTELNYKNTEPVLDSDGSYFMYSKLRVEKKNWVERNSYSCSVVHEGLHNHHTTKSFSRTPGKGGGGSGGGGSDYKDDDDKLPETGGHHHHHH
modifications: Alexa Fluor 647 installed site-specifically at the C-terminus by sortase (Gly3-Alexa647 on the LPETG motif) for the flow cytometry stainings
killing of AK23 target cells co-cultured with RAW264.7 macrophages, 10 nM construct, 24 hours [1]: 60% | killing of F779 target cells co-cultured with RAW264.7 macrophages, 10 nM construct, 24 hours [2]: 65% | killing of F779 target cells co-cultured with RAW264.7 macrophages, 10 nM construct, 48 hours [2]: 94% | killing of F779 target cells with RAW264.7 macrophages (Effector:Target 10:1), 1 nM construct, 24 hours [2]: 60% | killing of F779 target cells with RAW264.7 macrophages (Effector:Target 10:1), 1 nM construct, 48 hours [2]: 80% | killing of targeted cells with RAW264.7 macrophages at 10 and 100 nM construct [2]: 90% | killing of targeted cells with RAW264.7 macrophages at 10 and 100 nM construct [3]: 90%
